The experiment addresses TNF-α (UniProt P01375). As to the kind of experiment: cell-based or functional assay.
Sequence of UniProt P01375 (P01375 77-233 limits assumed): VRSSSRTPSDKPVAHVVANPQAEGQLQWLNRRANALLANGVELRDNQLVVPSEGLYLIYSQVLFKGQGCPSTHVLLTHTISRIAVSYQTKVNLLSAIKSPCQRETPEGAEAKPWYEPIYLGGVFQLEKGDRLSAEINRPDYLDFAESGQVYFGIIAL

Sequence of recombinant human TNFR:Fc fusion protein (TNFR-II:Fc), protein A purified, not HIC-fractionated (chain): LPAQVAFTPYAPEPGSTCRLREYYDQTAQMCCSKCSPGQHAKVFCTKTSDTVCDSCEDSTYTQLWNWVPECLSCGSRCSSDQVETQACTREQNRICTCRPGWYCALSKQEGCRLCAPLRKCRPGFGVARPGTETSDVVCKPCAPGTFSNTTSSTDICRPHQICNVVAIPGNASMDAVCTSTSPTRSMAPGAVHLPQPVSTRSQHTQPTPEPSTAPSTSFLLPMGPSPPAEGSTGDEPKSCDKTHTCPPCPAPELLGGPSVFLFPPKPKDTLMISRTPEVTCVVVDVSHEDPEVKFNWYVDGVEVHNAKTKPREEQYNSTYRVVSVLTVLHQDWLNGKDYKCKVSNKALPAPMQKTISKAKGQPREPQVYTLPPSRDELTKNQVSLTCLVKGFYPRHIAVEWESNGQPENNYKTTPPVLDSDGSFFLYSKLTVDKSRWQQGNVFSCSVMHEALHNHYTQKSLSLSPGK

For the substance “TNFR:Fc, HIC peak 3 fraction (Fc fusion)”, the bioactivity (A375 assay; HIC with sodium acetate gradient) is less than 340000 U/mg and the bioactivity (A375 cell killing neutralisation assay), compared to unfractionated material came to 11%.

For the substance “recombinant human TNFR:Fc fusion protein (TNFR-II:Fc), protein A purified, not HIC-fractionated”, the Bioassay 10^6 units/mg (n = 2); VA12 cells, production at 28° C., IGF-1 was determined as 2.07e+06 units/mg; the Bioassay 10^6 units/mg (n = 2); VA12 cells, production at 32° C., IGF-1 came to 1.62e+06 units/mg; the Bioassay 10^6 units/mg (n = 2); VA12 cells, production at 34° C., IGF-1 was 950000 units/mg; the Bioassay 10^6 units/mg (n = 2); VA12 cells, production at 37° C., IGF-1 was 490000 units/mg.

On to “TNFR:Fc, HIC peak 2 fraction (Fc fusion)”, for which the bioactivity (A375 assay; HIC with sodium acetate gradient) was found to be 2.71e+06 U/mg and the bioactivity (A375 cell killing neutralisation assay), compared to unfractionated material amounted to 117%.

Values taken from patent publication US7294481.
